In publication PMC12518693, “Potent Fluorescent Probe for Target‐Engagement Studies of Allosteric Pyruvate Kinase Modulators” (Angewandte Chemie (International Ed. in English), 2025):
Values joined by “and” are separate entries in the source; they are usually repeats but may differ in a detail not shown here. Identical values can stand only once.

B1: liver isoform of pyruvate kinase (PKL), wild type, recombinant (enzyme)
chain: not shown
notes: Pyruvate kinase, liver isoform (PKL), human; The same molecule is used for the native PAGE protein and for the crystallised protein; Construct details are probably in the Supporting Information; also called PKLwt; source: recombinant
B2: PKL-Nluc fusion, nanoluciferase fused to the N-terminus of PKL, recombinant (enzyme)
chain: not shown
notes: Pyruvate kinase, liver isoform (PKL), human; The bands were detected by in-gel luminescence of the Nluc part; source: recombinant, expressed and purified; not shown: Nluc, N-terminal, kept

Molecular target: the molecule itself
Assay: native gel or EMSA; recombinant protein incubated with tracer IV (0.15-10 uM) or DMSO at room temperature, native PAGE on 3%-12% bis-tris gel; bands seen by in-gel luminescence (Nluc substrate), colloidal blue staining and western blot; no FBP

Row | Protein | stoichiometry N
1 | B1 | 4
2 | B2 | 4 and 2
